The source of these data is the supplement of paper PMC10201428.

± gives the standard deviation of the averaged measurements.

First the molecules themselves.
B1: library; a variant is named by its letters at N, in order (parent)
chain: AATGTTGTTGATGCAACCATAAAGTGATATTTAATAATTATTTATAATCAGCAACTTAACCACAAAACAACCATATATTGATATNTCACAAAACAACCATAANTTGATATTTTTGTGAATCGAGTATTTCAGCAAAACTACTGCAGTAAGAA
B2: library; a variant is named by its letters at N, in order (parent)
chain: ACATTTGTTGATACAACCATAAAATGATAATTACACCCATAAATTGATAATTATCACACCCANNNNNNNNNNNNNNCTCTGATCATAGTCAGACCAACATTGCTACGACCCGTATTCGCACCGACAC

What all share (details): with VchCAST RNA-guided transposition machinery (E. coli BL21(DE3) host, lacZ target)
Data set [1] covers variants of B1. The data set can be described thus: relative integration efficiency (T-RL orientation) vs wild-type transposon end (log2 (normalized fold change)); transposon end mutated: left end; higher = more efficient transposition. In a few lines: (§1)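 Co-transformation of E. coli BL21(DE3) combined a pUC57 mini-transposon donor, holding barcoded pools of 1549 left-end or 1849 right-end variants, with a T7-driven plasmid encoding a CRISPR array, tniQ-cas8-cas7-cas6 and tnsA-tnsB-tnsC. After plating with 0.1 mM IPTG at 37°C for 18 h, input plasmids and genomic integration junctions were PCR-amplified and Illumina-sequenced across two biological output replicates, with four reference barcodes. Relative integration efficiency is the normalised, log-transformed output/input barcode fold change.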

Variants of B1 are the subject of data set [2]. The data set can be described thus: relative integration efficiency (T-LR orientation) vs wild-type transposon end (log2 (normalized fold change)); transposon end mutated: left end; higher = more efficient transposition. In a few lines: as §1
In data set [3] the parent is B2. The data set can be described thus: relative integration efficiency (T-RL orientation) vs wild-type transposon end (log2 (normalized fold change)); transposon end mutated: right end (5 bp flank + 75 bp right end); higher = more efficient transposition. How it is done: (§2)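 Pooled, barcoded VchCAST (Tn6677) mini-transposon donor libraries; each variable transposon-end sequence sits in a fixed pDonor mini-transposon context (10-bp barcode and cargo not included). Left- or right-end libraries were co-transformed with pEffector (TniQ-Cascade, TnsABC, lacZ crRNA, T7, 0.1 mM IPTG) into E. coli BL21(DE3) and grown 18 h at 37 C. T-LR and T-RL junction amplicons were sequenced; output/input barcode fold change was normalised to the mean of four wild-type barcodes and log2-transformed. Two biological replicates; zero-count/undetected variants carry floor values (-10 / -15), censored here. Barcode uncoupling by PCR recombination adds noise.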

The variants in data set [4] derive from B2. The data set can be described thus: relative integration efficiency (T-LR orientation) vs wild-type transposon end (log2 (normalized fold change)); transposon end mutated: right end (5 bp flank + 75 bp right end); higher = more efficient transposition. How it is done: as §2

For the variant CG T45C A46T A47T C49T A50G C52T A53T T56A A59T C60T, the “relative integration efficiency (log2)” value in data set [1] was -6.51 ± 2.
In the case of CG T111A, the “relative integration efficiency (log2)” value in data set [2] was -0.0724 ± 0.42; in data set [1], -0.134 ± 0.076.
For CG T111C, in that order: -0.338 ± 0.58 and -0.142 ± 0.1.
For CG T111G, in that order: 0.0369 ± 0.43 and -0.195 ± 0.25.
Turning to CG T105A G106C A107T T108A, the “relative integration efficiency (log2)” value was -1.32 ± 0.25 in data set [2] and -1.6 ± 0.76 in data set [1].
On to CG T112G T113G, for which the entries for the “relative integration efficiency (log2)” value in data set [2] and in data set [1] were -0.314 ± 0.34 and -0.443 ± 0.12, respectively.
For the variant CG A44G T45C A47T T48A C49A G51A C52A A53T A54T T56A A58C, the “relative integration efficiency (log2)” value in data set [1] is -6.6 ± 1.8.
In the case of CG G10C A11T T12A G13C, the “relative integration efficiency (log2)” value in data set [1] was -0.736 ± 0.86.
CG T111A T112A T113A T114A: the “relative integration efficiency (log2)” value was -0.629 ± 0.047 in data set [2] and -0.668 ± 0.39 in data set [1].
The matching figures for CG T100A A101T: -0.623 ± 0.79 and -0.364 ± 0.49.
For CG T76G A77C T78G T79G, in that order: -3.06 ± 1.4 and -2.26 ± 0.77.
The matching figures for CG T104G T105G: -1.76 ± 0.75 and -1.3 ± 0.71.
Turning to CG T76G A77C, the “relative integration efficiency (log2)” value in data set [2] was -0.497 ± 0.94; in data set [1], -0.785 ± 0.46.
For CG T114A G115C, in that order: -0.272 ± 0.35 and -0.342 ± 0.024.
The matching figures for CG T120A: 0.11 ± 0.41 and -0.141 ± 0.026.
The matching figures for CG T120C: -0.00648 ± 0.1 and -0.131 ± 0.053.
For CG T120G, the “relative integration efficiency (log2)” value is -0.103 ± 0.1 in data set [2] and -0.231 ± 0.1 in data set [1].
For CG T110A T111A T112A T113A, the results for the “relative integration efficiency (log2)” value in data set [2] and in data set [1] were -0.328 ± 0.56 and -0.587 ± 0.42, respectively.
The matching figures for CT A101C A102C T104G: -2.08 ± 1.2 and -1.96 ± 0.64.
For GG T86A, in that order: 0.153 ± 0.2 and -0.397 ± 0.17.
Consider CG T20G T74G T100G, for which the “relative integration efficiency (log2)” value in data set [1] is -6.64 ± 1.3.
On to CG T113A T114A, for which the “relative integration efficiency (log2)” value in data set [2] is -0.122 ± 0.087; in data set [1] it was -0.426 ± 0.25.
In the case of CG T8G T9G G10T A11C, in data set [1], the “relative integration efficiency (log2)” value was -7.43 ± 0.35.
As for AG T86G C87A A88C, the “relative integration efficiency (log2)” value in data set [2] is 0.0813 ± 0.34; in data set [1], -0.158 ± 0.041.
The matching figures for CG T112A T113A T114A G115C: -0.584 ± 1 and 0.0734 ± 0.12.
The matching figures for GG T86A C87G A88T: 0.143 ± 0.77 and -0.152 ± 0.19.
With CG T6A G7C T8A T9A, the “relative integration efficiency (log2)” value in data set [1] is -6.58 ± 0.36.
Same read-out and setting: in the case of CG T3A G4C T5A T6A it was -6.84 ± 0.4.
For the variant CG T111A T112A, the figures for the “relative integration efficiency (log2)” value in data set [2] and in data set [1] were -0.101 ± 0.79 and -0.479 ± 0.31, respectively.
For CG T82G, in that order: -0.227 ± 0.47 and -0.597 ± 0.43.
For the variant CG T82A, the “relative integration efficiency (log2)” value in data set [1] was -0.103 ± 0.77.
As to CG T82C, the “relative integration efficiency (log2)” value in data set [2] is 0.362 ± 0.73; in data set [1], 0.536 ± 0.29.
As to CG T6A G7C, in data set [1], the “relative integration efficiency (log2)” value is -6.27 ± 0.56.
The same measure, in the same setting: next, CG T6G: -7.013 ± 0.063.
Turning to CG T104G T105G G106T A107C, the “relative integration efficiency (log2)” value in data set [2] is -2.25 ± 1.7; in data set [1] it was -2.11 ± 0.66.
For TAAATACTAATTGC, the “relative integration efficiency (log2)” value in data set [3] is -0.376 ± 0.27; in data set [4] it was 2.61 ± 0.13.
On to TAAATTGATATTGC A15T, for which the “relative integration efficiency (log2)” value in data set [3] is -0.218 ± 0.022; in data set [4], -0.624 ± 0.069.
The matching figures for TAAATTGATATTGC A15C: 0.297 ± 0.19 and 0.449 ± 0.3.
The matching figures for TAAATTGATATTGC A15G: -0.381 ± 0.0063 and -0.228 ± 0.029.
In the case of TAAAGGGATATTGC, the “relative integration efficiency (log2)” value in data set [3] was -0.254 ± 0.0064; in data set [4] it was 1.63 ± 0.069.
Consider TAAAATGATAATTA C59A, for which the “relative integration efficiency (log2)” value in data set [3] was 0.000716 ± 0.075; in data set [4] it was -0.0217 ± 0.15.
TAAATTGATACTGC: the figures for the “relative integration efficiency (log2)” value in data set [3] and in data set [4] were -0.0852 ± 0.044 and 0.177 ± 0.018, respectively.
Turning to TAAATTGATATTGC A23C, the “relative integration efficiency (log2)” value was 0.346 ± 0.047 in data set [3] and 0.198 ± 0.087 in data set [4].
As for TAAATTGATATTGC A23T, the “relative integration efficiency (log2)” value in data set [3] worked out at 1.42 ± 0.079; in data set [4], 1.34 ± 0.053.
The matching figures for TAAATTGATATTGC A23G: -0.0394 ± 0.13 and -0.227 ± 0.71.
The matching figures for TAAATTGATATTGA: 0.138 ± 0.028 and 0.0994 ± 0.1.
The matching figures for TAAATTGATATTGC: -0.0034 ± 0.1 and -0.0165 ± 0.24.
With TAAAGTGATATTTA C59A, the “relative integration efficiency (log2)” value in data set [3] was -0.094 ± 0.095; in data set [4], -0.17 ± 0.3.
For TAAATTGAATTTGC, in that order: -0.179 ± 0.17 and 1.16 ± 0.42.
TAAATGGATATTGC: the “relative integration efficiency (log2)” value in data set [3] was -0.161 ± 0.039; in data set [4], 1.54 ± 0.17.
The matching figures for TAAATTCTATTTGC: -0.619 ± 0.18 and 2.22 ± 0.053.
For TAAATTGATAGGGC, in that order: 0.0268 ± 0.029 and 1.18 ± 0.057.
As for TAAATTGATATACC, the “relative integration efficiency (log2)” value in data set [3] was -0.223 ± 0.13; in data set [4] it was 0.207 ± 0.58.
Regarding TAAATTGATAAAGC, the “relative integration efficiency (log2)” value in data set [3] was -0.251 ± 0.025; in data set [4], 0.6224 ± 0.0024.
For TAAATCGATATTGC, the “relative integration efficiency (log2)” value is -0.159 ± 0.022 in data set [3] and 0.237 ± 0.063 in data set [4].
For TAAATTGATATTGC A13T, in that order: 0.116 ± 0.008 and 0.0619 ± 0.48.
The matching figures for TAAATTGATATTGC A13G: 0.209 ± 0.06 and 0.173 ± 0.33.
The matching figures for TAAATTGATATTGC A13C: -0.236 ± 0.083 and -0.613 ± 0.75.
As for TAAATTGATATTCG, the “relative integration efficiency (log2)” value in data set [3] was -0.0179 ± 0.025; in data set [4], -0.258 ± 0.12.
Take TAAATTGATATTCC: the “relative integration efficiency (log2)” value was -0.154 ± 0.11 in data set [3] and -0.146 ± 0.21 in data set [4].
For TAAATTGATATCGC, in that order: 0.0222 ± 0.012 and -0.0692 ± 0.048.
